Earlier results, collected in article PMC7465696.

Molecular target: HP1β CSD (Homo sapiens) (UniProt P83916)
Assay: sedimentation analysis

Kd: < 0.15 µM
Substance: HP1β CSD (from UniProt P83916)
